Target: β-PIX (endogenous, Hap1 cells) (human (endogenous in Hap1)) (UniProt Q14155)
Chain of UniProt Q14155 (Q14155 whole entry): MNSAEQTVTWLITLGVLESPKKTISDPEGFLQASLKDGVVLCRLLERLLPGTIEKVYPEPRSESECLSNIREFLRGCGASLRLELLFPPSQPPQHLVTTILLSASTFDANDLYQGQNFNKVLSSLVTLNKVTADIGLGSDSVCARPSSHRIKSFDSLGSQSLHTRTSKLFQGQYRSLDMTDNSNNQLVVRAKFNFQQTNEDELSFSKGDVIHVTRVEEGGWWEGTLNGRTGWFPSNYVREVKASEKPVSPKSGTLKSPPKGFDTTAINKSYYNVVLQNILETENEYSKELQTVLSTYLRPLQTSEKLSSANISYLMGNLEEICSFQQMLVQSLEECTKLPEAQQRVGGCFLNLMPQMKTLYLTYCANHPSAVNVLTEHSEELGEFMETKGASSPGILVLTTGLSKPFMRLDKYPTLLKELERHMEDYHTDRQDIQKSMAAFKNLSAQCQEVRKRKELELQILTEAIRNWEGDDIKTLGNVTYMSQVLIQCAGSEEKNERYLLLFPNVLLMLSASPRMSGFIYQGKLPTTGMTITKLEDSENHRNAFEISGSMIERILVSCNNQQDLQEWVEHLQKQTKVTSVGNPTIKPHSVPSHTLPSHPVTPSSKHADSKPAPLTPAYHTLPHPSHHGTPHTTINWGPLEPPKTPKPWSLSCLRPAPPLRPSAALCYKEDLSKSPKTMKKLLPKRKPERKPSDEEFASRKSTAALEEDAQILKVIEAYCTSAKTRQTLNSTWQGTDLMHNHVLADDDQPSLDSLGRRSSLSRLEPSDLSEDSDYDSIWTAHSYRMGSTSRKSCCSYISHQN

Emerald-tagged PAK1, full length (from UniProt Q13153 1-545) (enzyme)
Salmonella invasion into WT Hap1 cells treated with the inhibitor peptide PAK18 (PAK residues 187–203; 5 μM), percent impeded; negative control peptide had no effect: 55%

— paper PMC8432889
